Results from PMC6047474.
Like-named read-outs stand apart in the source and are kept apart here.

What was measured:
[1] = target: Histones (bovine), Sigma-Aldrich H9250 (bovine); assay: ITC
[2] = target: Histones (bovine), Sigma-Aldrich H9250 (bovine); assay: ITC; remark: listed apart in the source

βL-crystallin (complex)
Ka [1]: 1.35e+06 M⁻¹
Kd [1]: 743 nM
dH [1]: -8.86 kcal/mol
Ka [2]: 1.15e+07 M⁻¹
Kd [2]: 86.4 nM
dH [2]: -10.7 kcal/mol

γ-crystallin
Ka [1]: 9.79e+06 M⁻¹
Kd [1]: 102 nM
dH [1]: -15.8 kcal/mol
Ka [2]: 7.85e+06 M⁻¹
Kd [2]: 127 nM
dH [2]: -13.4 kcal/mol

B1: α-crystallin (complex)
chain 1: MDIAIQHPWFKRALGPFYPSRLFDQFFGEGLFEYDLLPFLSSTISPYYRQSLFRTVLDSGVSEVRSDRDKFVIFLDVKHFSPEDLTVKVQEDFVEIHGKHNERQDDHGYISREFHRRYRLPSNVDQSALSCSLSADGMLTFSGPKVPSGVDAGHSERAIPVSREEKPSSAPTS
chain 2: MDIAIHHPWIRRPFFPFHSPSRLFDQFFGEHLLESDLFPASTSLSPFYFRPPSFLRAPSWIDTGLSEMRLEKDRFSVNLDVKHFSPEELKVKVLGDVIEVHGKHEERQDEHGFISREFHRKYRIPADVDPLTITSSLSSDGVLTVNGPRRQASGPERTIPITREEKPAVTAAPKK
Ka [1]: 3.42e+07 M⁻¹
Kd [1]: 29.3 nM
Kd [2]: 400 nM
dH [2]: -6.29 kcal/mol
